From US20220233697A1 (ACCELERON PHARMA, published 2022)

Biological target: T1, activin A (UniProt P08476 311-426)
T1 construct: also called ActA
T1 sequence (looked up): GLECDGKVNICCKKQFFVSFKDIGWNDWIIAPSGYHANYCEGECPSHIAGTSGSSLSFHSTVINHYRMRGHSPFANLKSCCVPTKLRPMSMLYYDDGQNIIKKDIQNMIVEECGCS
Test: Biacore, ligand coupled, receptor flowed (table reproduced from WO2006/012627)

B1: Soluble ActRIIB-Fc K55A (Fc fusion, UniProt Q13705 19-119, looked up)
chain: SGRGEAETRECIYYNANWELERTNQSGLERCEGEQDARLHCYASWANSSGTIELVKKGCWLDDFNCYDRQECVATEENPQVYFCCCEGNFCNERFTHLPEA
notes: not shown: Fc domain, not specified
Does B1 bind?
Result: binds
